These results are taken from patent US20230331827A1, “POTASSIUM CHANNEL INHIBITORS” (priority 2017, published 2023).

Test [1] deals with trypsin. Nature of the test: flow cytometry of HEK293 cells displaying the scFv-Fc, 15 days post transfection after blasticidin selection; untransfected cells (panel C): Q2 0.043. (In general: In flow cytometry, cells or beads pass a laser one at a time.)
For test [2], the target named is trypsin. Nature of the test: flow cytometry, biotinylated trypsin/streptavidin-APC.
For test [3], the target named is trypsin. Nature of the test: phage TRF, GlyAla mutant against parent clone.

B1: KB_A12 scFv-Fc displayed on HEK293 cells (Fc fusion)
VH: EVQLVESGGGLVRPGGSLRLSCAASGFTFSSYAMSWVRQAPGKGLEWVSAISGSGGSTYYADSVKGRFTISRDNTKNSLYLQMTSLRADDTAFYYCVKDFGPGYGTGWFDYWGPGTLVTVSS
VL: QSVLTQPPSVSEAPRQRVTITCSGSSSNIGNNAVNWYQQLPGKAPKLLIYAAGRCPRILMRCKQDSDCLAGCVCGPNGFCGANSGVSDRFSAAKSGTSASLAINGLRSEDEADYYCAAWDDSLNGYVFGTGTKLTVLGQP
In the test with trypsin [1], B1 yielded a Q2, share of cells stained by both anti-Fc-PE (FL2) and biotinylated trypsin/streptavidin-APC (FL4) of 11.2%. In the test with trypsin [2], this molecule yielded a % of transfected HEK293 cells dual stained for Fc and trypsin of 11%.

B2: KB_A11 GlyAla mutant (scFv on phage) (scFv, V domains shown)
VH: B1 VH
VL: YLNWYQQKPGKAPKLLIYAAEICGAILMRCKQDSDCLAGCVCGPNGFCGPSSGIPARFSGSGYGTDFTLTINNIESEDAAYYFCLQHDNFPYTFGQGTKVEIKR
B2: the % reduction in binding signal with trypsin [3] worked out at 100%.

B3: KB_A01 GlyAla mutant (scFv on phage) (scFv, V domains shown)
VH: B1 VH
VL: YLNWYQQKPGKAPKLLIYAAEVCGAILMRCKQDSDCLAGCVCGPNGFCGGTSGVPSRFSGSRSGTEFTLTISSLQPEDFATYYCQKVDDYPLTFGGGTKVEIKR
B3: the % reduction in binding signal with trypsin [3] amounted to 93%.
